The chains are these.
T1: EsCas13d, nuclease-dead (Eubacterium siraeum, UniProt B0MS50, R295A;H300A;R849A;H854A)
T1 sequence: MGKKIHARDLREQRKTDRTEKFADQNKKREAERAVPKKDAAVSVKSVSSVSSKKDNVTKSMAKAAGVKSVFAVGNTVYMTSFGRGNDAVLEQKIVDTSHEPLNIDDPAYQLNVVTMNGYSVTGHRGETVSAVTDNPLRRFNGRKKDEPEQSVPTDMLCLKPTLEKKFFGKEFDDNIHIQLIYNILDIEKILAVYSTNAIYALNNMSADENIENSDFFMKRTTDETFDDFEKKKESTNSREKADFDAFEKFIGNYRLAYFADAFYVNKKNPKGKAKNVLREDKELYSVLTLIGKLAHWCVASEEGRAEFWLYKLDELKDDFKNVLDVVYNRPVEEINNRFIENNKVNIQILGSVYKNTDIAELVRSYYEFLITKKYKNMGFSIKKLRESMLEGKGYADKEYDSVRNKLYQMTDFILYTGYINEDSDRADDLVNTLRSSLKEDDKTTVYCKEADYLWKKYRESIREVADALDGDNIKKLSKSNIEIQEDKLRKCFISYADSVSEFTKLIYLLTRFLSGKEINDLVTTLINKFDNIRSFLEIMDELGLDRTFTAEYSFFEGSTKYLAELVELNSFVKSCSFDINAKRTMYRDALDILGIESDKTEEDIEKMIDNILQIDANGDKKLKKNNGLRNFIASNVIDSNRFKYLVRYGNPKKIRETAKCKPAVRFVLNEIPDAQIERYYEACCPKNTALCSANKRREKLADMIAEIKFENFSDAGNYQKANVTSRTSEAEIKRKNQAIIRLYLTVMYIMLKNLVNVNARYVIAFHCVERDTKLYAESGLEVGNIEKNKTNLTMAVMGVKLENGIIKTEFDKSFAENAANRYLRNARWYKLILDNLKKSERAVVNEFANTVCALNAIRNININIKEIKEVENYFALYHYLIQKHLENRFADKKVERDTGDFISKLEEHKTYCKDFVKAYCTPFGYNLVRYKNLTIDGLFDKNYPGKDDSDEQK

B1: target 1 U3A,G13A (mixed)
RNA 1: CACCCGUGCAAAAAUGCAGGGGUCUAAAACUGAGCGGAUAACCUCUCUAUGG
RNA 2: GGGAAUGGAUCCACAUCUACGAAUUCGUACCAUAGAGAAGUUAUCCGCACACCGAGAUCGGAAGAGCACACGU
B2: target 1 C6U,A20U (mixed)
RNA 1: CACCCGUGCAAAAAUGCAGGGGUCUAAAACUGAGCGGAUAACCUCUCUAUGG
RNA 2: GGGAAUGGAUCCACAUCUACGAAUUCGUACCUUAGAGAGGUUAUCUGCUCACCGAGAUCGGAAGAGCACACGU
B3: target 2 MT 5'PFS GCA 3'PFS CCG (mixed)
RNA 1: CACCCGUGCAAAAUUGCAGGGGUCUAAAACCUUCUCCAAAUUGUUUCAUCCU
RNA 2: GGGAAUGGAUCCACAUCUACGAAUUCGCAAGGAUGAAACAAUUUGGAGAAGCCGAGAUCGGAAGAGCACACGU
B4: target 2 MT 5'PFS AUA 3'PFS AAA (mixed)
RNA 1: CACCCGUGCAAAAUUGCAGGGGUCUAAAACCUUCUCCAAAUUGUUUCAUCCU
RNA 2: GGGAAUGGAUCCACAUCUACGAAUUCAUAAGGAUGAAACAAUUUGGAGAAGAAAAGAUCGGAAGAGCACACGU
B5: target 2 MT 5'PFS CGA 3'PFS ACC (mixed)
RNA 1: CACCCGUGCAAAAUUGCAGGGGUCUAAAACCUUCUCCAAAUUGUUUCAUCCU
RNA 2: GGGAAUGGAUCCACAUCUACGAAUUCCGAAGGAUGAAACAAUUUGGAGAAGACCAGAUCGGAAGAGCACACGU
B6: target 2 MT 5'PFS UGU 3'PFS AAC (mixed)
RNA 1: CACCCGUGCAAAAUUGCAGGGGUCUAAAACCUUCUCCAAAUUGUUUCAUCCU
RNA 2: GGGAAUGGAUCCACAUCUACGAAUUCUGUAGGAUGAAACAAUUUGGAGAAGAACAGAUCGGAAGAGCACACGU
B7: target 2 MT 5'PFS GUC 3'PFS ACA (mixed)
RNA 1: CACCCGUGCAAAAUUGCAGGGGUCUAAAACCUUCUCCAAAUUGUUUCAUCCU
RNA 2: GGGAAUGGAUCCACAUCUACGAAUUCGUCAGGAUGAAACAAUUUGGAGAAGACAAGAUCGGAAGAGCACACGU
B8: target 2 MT 5'PFS AUG 3'PFS AAU (mixed)
RNA 1: CACCCGUGCAAAAUUGCAGGGGUCUAAAACCUUCUCCAAAUUGUUUCAUCCU
RNA 2: GGGAAUGGAUCCACAUCUACGAAUUCAUGAGGAUGAAACAAUUUGGAGAAGAAUAGAUCGGAAGAGCACACGU
B9: target 2 MT 5'PFS UUG 3'PFS AUG (mixed)
RNA 1: CACCCGUGCAAAAUUGCAGGGGUCUAAAACCUUCUCCAAAUUGUUUCAUCCU
RNA 2: GGGAAUGGAUCCACAUCUACGAAUUCUUGAGGAUGAAACAAUUUGGAGAAGAUGAGAUCGGAAGAGCACACGU
B10: target 2 MT 5'PFS UUG 3'PFS CUU (mixed)
RNA 1: CACCCGUGCAAAAUUGCAGGGGUCUAAAACCUUCUCCAAAUUGUUUCAUCCU
RNA 2: GGGAAUGGAUCCACAUCUACGAAUUCUUGAGGAUGAAACAAUUUGGAGAAGCUUAGAUCGGAAGAGCACACGU
B11: target 2 MT 5'PFS GUC 3'PFS ACU (mixed)
RNA 1: CACCCGUGCAAAAUUGCAGGGGUCUAAAACCUUCUCCAAAUUGUUUCAUCCU
RNA 2: GGGAAUGGAUCCACAUCUACGAAUUCGUCAGGAUGAAACAAUUUGGAGAAGACUAGAUCGGAAGAGCACACGU
B12: target 2 MT 5'PFS CGA 3'PFS ACA (mixed)
RNA 1: CACCCGUGCAAAAUUGCAGGGGUCUAAAACCUUCUCCAAAUUGUUUCAUCCU
RNA 2: GGGAAUGGAUCCACAUCUACGAAUUCCGAAGGAUGAAACAAUUUGGAGAAGACAAGAUCGGAAGAGCACACGU
B13: target 2 MT 5'PFS GUC 3'PFS ACG (mixed)
RNA 1: CACCCGUGCAAAAUUGCAGGGGUCUAAAACCUUCUCCAAAUUGUUUCAUCCU
RNA 2: GGGAAUGGAUCCACAUCUACGAAUUCGUCAGGAUGAAACAAUUUGGAGAAGACGAGAUCGGAAGAGCACACGU
B14: target 2 MT 5'PFS GUC 3'PFS ACC (mixed)
RNA 1: CACCCGUGCAAAAUUGCAGGGGUCUAAAACCUUCUCCAAAUUGUUUCAUCCU
RNA 2: GGGAAUGGAUCCACAUCUACGAAUUCGUCAGGAUGAAACAAUUUGGAGAAGACCAGAUCGGAAGAGCACACGU
B15: target 2 MT 5'PFS GUC 3'PFS CAG (mixed)
RNA 1: CACCCGUGCAAAAUUGCAGGGGUCUAAAACCUUCUCCAAAUUGUUUCAUCCU
RNA 2: GGGAAUGGAUCCACAUCUACGAAUUCGUCAGGAUGAAACAAUUUGGAGAAGCAGAGAUCGGAAGAGCACACGU
B16: target 2 MT 5'PFS CGA 3'PFS ACG (mixed)
RNA 1: CACCCGUGCAAAAUUGCAGGGGUCUAAAACCUUCUCCAAAUUGUUUCAUCCU
RNA 2: GGGAAUGGAUCCACAUCUACGAAUUCCGAAGGAUGAAACAAUUUGGAGAAGACGAGAUCGGAAGAGCACACGU
B17: target 2 MT 5'PFS UUG 3'PFS AUA (mixed)
RNA 1: CACCCGUGCAAAAUUGCAGGGGUCUAAAACCUUCUCCAAAUUGUUUCAUCCU
RNA 2: GGGAAUGGAUCCACAUCUACGAAUUCUUGAGGAUGAAACAAUUUGGAGAAGAUAAGAUCGGAAGAGCACACGU
B18: target 2 MT 5'PFS AUG 3'PFS AAC (mixed)
RNA 1: CACCCGUGCAAAAUUGCAGGGGUCUAAAACCUUCUCCAAAUUGUUUCAUCCU
RNA 2: GGGAAUGGAUCCACAUCUACGAAUUCAUGAGGAUGAAACAAUUUGGAGAAGAACAGAUCGGAAGAGCACACGU
B19: target 2 MT 5'PFS CGC 3'PFS UUU (mixed)
RNA 1: CACCCGUGCAAAAUUGCAGGGGUCUAAAACCUUCUCCAAAUUGUUUCAUCCU
RNA 2: GGGAAUGGAUCCACAUCUACGAAUUCCGCAGGAUGAAACAAUUUGGAGAAGUUUAGAUCGGAAGAGCACACGU
B20: target 2 MT 5'PFS AUG 3'PFS AAA (mixed)
RNA 1: CACCCGUGCAAAAUUGCAGGGGUCUAAAACCUUCUCCAAAUUGUUUCAUCCU
RNA 2: GGGAAUGGAUCCACAUCUACGAAUUCAUGAGGAUGAAACAAUUUGGAGAAGAAAAGAUCGGAAGAGCACACGU
B21: target 2 MT 5'PFS AUA 3'PFS AAU (mixed)
RNA 1: CACCCGUGCAAAAUUGCAGGGGUCUAAAACCUUCUCCAAAUUGUUUCAUCCU
RNA 2: GGGAAUGGAUCCACAUCUACGAAUUCAUAAGGAUGAAACAAUUUGGAGAAGAAUAGAUCGGAAGAGCACACGU
B22: target 2 MT 5'PFS UUG 3'PFS AUU (mixed)
RNA 1: CACCCGUGCAAAAUUGCAGGGGUCUAAAACCUUCUCCAAAUUGUUUCAUCCU
RNA 2: GGGAAUGGAUCCACAUCUACGAAUUCUUGAGGAUGAAACAAUUUGGAGAAGAUUAGAUCGGAAGAGCACACGU
B23: target 2 MT 5'PFS GCG 3'PFS UAU (mixed)
RNA 1: CACCCGUGCAAAAUUGCAGGGGUCUAAAACCUUCUCCAAAUUGUUUCAUCCU
RNA 2: GGGAAUGGAUCCACAUCUACGAAUUCGCGAGGAUGAAACAAUUUGGAGAAGUAUAGAUCGGAAGAGCACACGU
B24: target 2 MT 5'PFS UUU 3'PFS CUU (mixed)
RNA 1: CACCCGUGCAAAAUUGCAGGGGUCUAAAACCUUCUCCAAAUUGUUUCAUCCU
RNA 2: GGGAAUGGAUCCACAUCUACGAAUUCUUUAGGAUGAAACAAUUUGGAGAAGCUUAGAUCGGAAGAGCACACGU
B25: target 2 MT 5'PFS UUG 3'PFS AUC (mixed)
RNA 1: CACCCGUGCAAAAUUGCAGGGGUCUAAAACCUUCUCCAAAUUGUUUCAUCCU
RNA 2: GGGAAUGGAUCCACAUCUACGAAUUCUUGAGGAUGAAACAAUUUGGAGAAGAUCAGAUCGGAAGAGCACACGU
B26: target 2 MT 5'PFS AUA 3'PFS AAG (mixed)
RNA 1: CACCCGUGCAAAAUUGCAGGGGUCUAAAACCUUCUCCAAAUUGUUUCAUCCU
RNA 2: GGGAAUGGAUCCACAUCUACGAAUUCAUAAGGAUGAAACAAUUUGGAGAAGAAGAGAUCGGAAGAGCACACGU
B27: target 2 MT 5'PFS AUA 3'PFS AAC (mixed)
RNA 1: CACCCGUGCAAAAUUGCAGGGGUCUAAAACCUUCUCCAAAUUGUUUCAUCCU
RNA 2: GGGAAUGGAUCCACAUCUACGAAUUCAUAAGGAUGAAACAAUUUGGAGAAGAACAGAUCGGAAGAGCACACGU

The data set addresses T1, EsCas13d, nuclease-dead. Nature of the data set: crRNA (strand 1, pre-loaded); Mg2+; 40 mM Tris-HCl pH 7.5, 150 mM NaCl, 6 mM MgCl2, 1 mM DTT, 0.1% Tween-20, 0.2 mg/ml BSA; 25 C; 10 min per concentration, then washed. Conditions: tags: His6-TwinStrep-SUMO cleaved; N-terminal SNAP kept (SNAP-Surface 488); label: 3' end held by stalled T7 RNA polymerase.
As to B1, the Kd was determined as 7.7 ± 0.5 nM.

In turn, B2 yielded a Kd of 35 ± 5 nM. In turn, B3 displayed a dissociation constant (Kd) of 10.3 ± 1.4 nM. B4 showed a Kd of 5 ± 0.8 nM. For the molecule B5, the Kd was about 38 nM. The result for B6 reads 24 ± 7 nM; that for B7, 18.5 ± 2.7 nM. On to B8, for which the Kd worked out at 7.6 ± 1 nM. The result for B9 reads 13.1 ± 1.5 nM; that for B10, 15.9 ± 2.1 nM; that for B11, 20.5 ± 2.1 nM. B12 gave a Kd of 10.8 ± 2.6 nM. The result for B13 reads 16.1 ± 1.3 nM. The result for B14 reads 28 ± 6 nM; that for B15, 17.9 ± 2.4 nM.

In turn, B16 displayed a Kd of 6.9 ± 1 nM.

Regarding B17, the Kd was 9.4 ± 0.8 nM.

Molecule B18 displayed a Kd of 18 ± 6 nM. This Kd lies about 1.9-fold higher than the previous one. The result for B19 reads 17 ± 4 nM; that for B20, 7.8 ± 1.6 nM. The result for B21 reads 8.6 ± 1.4 nM; that for B22, 11.9 ± 1 nM; that for B23, 14.9 ± 2.4 nM. With B24, the Kd amounted to 8.9 ± 0.8 nM.

Take B25: the Kd was 14.1 ± 1.3 nM. Compared with the last molecule, the Kd is about 1.6-fold higher. The molecule B26 came in with a Kd of 5.9 ± 1.4 nM. As to B27, the Kd was found to be 5.2 ± 0.9 nM.

(Values after publication PMC10786891, “Massively parallel profiling of RNA-targeting CRISPR-Cas13d”.)
